B1: 03A01-Fab-IL12 (LC) (protein, from a related filing, not shown: a dimerising Fc or GST)
VH: DVQFQESGPGLVKPSQSLSLTCTVTGYSITSDFAWNWIRQFPGNELEWMGYISYSGDTNYNPSLRSRISITRDTSKNQFFLQLDSVTTEDTATYYCTIRGYYTDSAFVFWGQGTLVTVSA
VL: DIQMTQSSSYLSVSLGGRVTITCKASDHINNWLAWYQQKPGNAPRLLISGATSLETGVPSRFTGSGSGLDYTLSITSLQTEDVATYYCQQYWNSPFTFGSGTKLEIK
B2: 03A01-Fab-Fc-IL12 (LC) (protein, from a related filing, not shown: a dimerising Fc or GST)
VH: DVQFQESGPGLVKPSQSLSLTCTVTGYSITSDFAWNWIRQFPGNELEWMGYISYSGDTNYNPSLRSRISITRDTSKNQFFLQLDSVTTEDTATYYCTIRGYYTDSAFVFWGQGTLVTVSA
VL: DIQMTQSSSYLSVSLGGRVTITCKASDHINNWLAWYQQKPGNAPRLLISGATSLETGVPSRFTGSGSGLDYTLSITSLQTEDVATYYCQQYWNSPFTFGSGTKLEIK
B3: 02A01-Fab-IL12 (LC) (protein, from a related filing, not shown: a dimerising Fc or GST)
VH: EVQLQQSGPELVKPGASLKISCKASGYTFTDFTMHWVKQSHGKSLEWIGLVNPNNGGNIYNQNFKGKATLTVDTSSSTAYMELRSLTSEDSSVYYCGRVPLYTSHGMDYWGQGTSVTVSS
VL: DIVLTQSPAFLAVSLGQRATISCRASESVDSYDINSMHWYQQKPGQPPKLLIYRASHLQSGIPARFSGSGSRTDFTLTINFVEADDVATYYCQQSNEDPLTFGAGTKLELK
B4: 02A01-Fab-Fc-IL12 (LC) (protein, from a related filing, not shown: a dimerising Fc or GST)
VH: EVQLQQSGPELVKPGASLKISCKASGYTFTDFTMHWVKQSHGKSLEWIGLVNPNNGGNIYNQNFKGKATLTVDTSSSTAYMELRSLTSEDSSVYYCGRVPLYTSHGMDYWGQGTSVTVSS
VL: DIVLTQSPAFLAVSLGQRATISCRASESVDSYDINSMHWYQQKPGQPPKLLIYRASHLQSGIPARFSGSGSRTDFTLTINFVEADDVATYYCQQSNEDPLTFGAGTKLELK

human CD8 on human T cells (human), sequence (P01732 22-235, chain 1 of 2): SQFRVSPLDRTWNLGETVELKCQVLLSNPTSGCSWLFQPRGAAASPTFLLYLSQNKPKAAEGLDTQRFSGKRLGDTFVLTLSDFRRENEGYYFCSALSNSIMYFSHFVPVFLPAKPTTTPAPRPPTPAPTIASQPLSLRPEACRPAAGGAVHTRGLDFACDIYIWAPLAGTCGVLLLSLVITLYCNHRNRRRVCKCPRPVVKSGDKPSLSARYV
human CD8 on human T cells (human), sequence (P10966 22-210, chain 2 of 2, further chain): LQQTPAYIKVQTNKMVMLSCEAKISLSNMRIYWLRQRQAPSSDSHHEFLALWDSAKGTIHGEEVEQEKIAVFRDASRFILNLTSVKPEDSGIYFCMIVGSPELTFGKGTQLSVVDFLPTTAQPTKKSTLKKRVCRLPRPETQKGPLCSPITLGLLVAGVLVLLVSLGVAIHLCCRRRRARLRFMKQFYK

The experiment addresses human CD8 on human T cells (human) (UniProt P01732). The experiment in a line: cell-based or functional assay.
The molecule B1 returned an EC50 for stimulation of pSTAT4 signaling, CD8+ T cells in pre-activated human PBMCs of 11.1 pM.
Next, B2: 13.4 pM.
Next, B3: 1.74 pM; B4: 2.11 pM.
